In patent US5879917:

Tested on: hUBF (RNA polymerase I transcription factor UBF), HeLa (Homo sapiens)
Experiment: footprint
Settings: 14 mM MgCl2, 50 mM KCl, pH 7.9, 30 C

Substance | Kd (single cis-[Pt(NH3)2]2+ d(GpG) 1,2-intrastrand adduct, central, non-cooperative) [nM] | Kd (apparent Kd (half-maximal), cooperative, Hill 2.7) [nM]
G^G-100 (100 bp with single central cisplatin 1,2-d(GpG) intrastrand crosslink) | 0.06 | –
human rRNA promoter -208 to +78 (EcoRI-BstEII fragment of pSBr208, 286 bp) | – | 0.018
